Source: US20150259666A1

Experiments:
[1] = biological target: fibrin (clot prepared from fibrinogen with bovine thrombin); test: fibrin clot binding assay, 0.3 mg/ml fibrinogen; bound enzyme = total minus free in supernatant by ELISA
[2] = biological target: fibrin (clot prepared from fibrinogen with bovine thrombin); test: fibrin clot binding assay, 0.1 mg/ml fibrinogen; bound enzyme = total minus free in supernatant by ELISA
[3] = biological target: fibrin (clot prepared from fibrinogen with bovine thrombin); test: fibrin clot binding assay; ratio of CT-b to full-length t-PA

percent fibrin binding [1]	percent fibrin binding [2]	fold fibrin binding against full-length t-PA [3]	Substance
51%	24%		full length t-PA (native human tissue plasminogen activator) (from UniProt P00750 36-562) (enzyme)
60%	28%	1.2 fold	chimeric truncated tissue plasminogen activator (CT t-PA) or CT-b (from UniProt P98119 37-82; P00750 82-214; P00750 297-562) (enzyme)
